Assay results as given in the supplement of paper PMC10724198.
± gives the standard deviation of the averaged measurements.
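Note: PSI is a weighted mean of sequencing reads over stability bins, variants kept only with over 10 reads, mCherry proximal and sfGFP distal, peptide attached via GGGS linker.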

Each sequence was assayed on Saccharomyces cerevisiae (assay: protein stability index of tFT-peptide fusion (C-terminal peptide) (PSI (0-1 scale)); higher = more stable (slower turnover)). Conditions: genetic background: wild type; temperature: 30 C.
Experimental: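 Multiplexed protein stability (MPS) profiling in S. cerevisiae. Random 12-aa peptides (tFT-X12 library) are fused to the C-terminus of a sfGFP-mCherry tandem fluorescent timer, after mCherry and a GGGS linker. Cells are FACS-sorted into 8 mCherry/sfGFP bins and deep-sequenced. The protein stability index (PSI) is the read-weighted bin average, scaled from 0 (unstable) to 1 (stable). Only peptides with >10 reads are reported; cells were grown at 30 °C in SC-His with glucose.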
In the case of RYCIRDNKSNRN, the protein stability index is reported as 0.705 ± 0.051. KGKRMSRLYSCG showed a protein stability index of 0.667 ± 0.012. With RFPRFVVPTRTR the protein stability index was 0.852 ± 0.058. VFPVGSGLWRVF was tested, and the protein stability index was 0.63 ± 0.016. CLLCLPPPRSLS gave a protein stability index of 0.69 ± 0.034. LGFYGSYGRWWV showed a protein stability index of 0.779 ± 0.085. SQRRGLLGRFRI showed a protein stability index of 0.695 ± 0.011. In the case of YGRANATHLGRR, the protein stability index is reported as 0.661 ± 0.005. QNKTKDQKQRRQ showed a protein stability index of 0.697 ± 0.028. In the case of GADGYSCGLVIT, the protein stability index is reported as 0.539 ± 0.11. With RYKCSQWHNGLT the protein stability index was 0.767 ± 0.048. In the case of GEVGTVEGGATG, the protein stability index is reported as 0.69596 ± 7e-05. In the case of GTSVGVRRKGVK, the protein stability index is reported as 0.708 ± 0.033. With TGGKGNKNKIKE the protein stability index was 0.692 ± 0.031. Sequence EEMMEWKKREEK has a protein stability index of 0.6596 ± 0.0009. KRRIGKYEERME showed a protein stability index of 0.661 ± 0.022. HSTESHHQLDNQ showed a protein stability index of 0.649 ± 0.026. NDGKTKRVKKRR showed a protein stability index of 0.619 ± 0.065. With WSRRGGWEKYGV the protein stability index was 0.676 ± 0.032. VGVSGAGFSWGG gave a protein stability index of 0.712 ± 0.0095. With PSRDPPAGPRAR the protein stability index was 0.684 ± 0.048. With AVPLFRSVSRTS the protein stability index was 0.667 ± 0.11. Sequence EAHGQQESRCEQ has a protein stability index of 0.7 ± 0.055. In the case of VILFINRIDDGK, the protein stability index is reported as 0.616 ± 0.057. In the case of PPPPLPASHPSP, the protein stability index is reported as 0.707 ± 0.044. Sequence GGCVGVLGGGGF has a protein stability index of 0.659 ± 0.016. YEMTGHVVTHEI was tested, and the protein stability index was 0.69 ± 0.075. For ALGQWGCAELHG, the protein stability index was 0.709 ± 0.0075. With CECVGGFGFLGS the protein stability index was 0.682 ± 0.031. For LPVPPPPVSVAN, the protein stability index was 0.554 ± 0.0089. Sequence GGRGGEGLVREG has a protein stability index of 0.667 ± 0.019. With RYKSVPLHCISN the protein stability index was 0.671 ± 0.022. Work on VGRGGGVSLGGR yielded a protein stability index of 0.671 ± 0.082. HLGQPRPSCPLF showed a protein stability index of 0.662 ± 0.088. Sequence GWVRCGGGAGVG has a protein stability index of 0.622 ± 0.056. In the case of PPPLCSIPPILL, the protein stability index is reported as 0.705 ± 0.034. In the case of IFYCPPVPTFPL, the protein stability index is reported as 0.697 ± 0.024. TLRLPLHLLRPT showed a protein stability index of 0.642 ± 0.021. In the case of STFRICTGVPRP, the protein stability index is reported as 0.729 ± 0.0093. Sequence PSKGKYKKMGPR has a protein stability index of 0.661 ± 0.076. CYGVGTVGLRRG was tested, and the protein stability index was 0.712 ± 0.048. VIVHFIWPSVGR showed a protein stability index of 0.652 ± 0.03. Work on IRIKKQRKEKRK yielded a protein stability index of 0.734 ± 0.048. In the case of GRRRVGAVVEGV, the protein stability index is reported as 0.641 ± 0.01. In the case of QRSQASIPGQEV, the protein stability index is reported as 0.579 ± 0.091. In the case of GVGRGCVLNGGG, the protein stability index is reported as 0.743 ± 0.018. In the case of YLQLALFHSIPH, the protein stability index is reported as 0.738 ± 0.053. LKDEERYKRRKV was tested, and the protein stability index was 0.709 ± 0.016. Sequence PAPCPSPPAPAV has a protein stability index of 0.708 ± 0.029. MGGGGGLCGMWA was tested, and the protein stability index was 0.723 ± 0.021. With RCTNSLPSYLSH the protein stability index was 0.675 ± 0.039. Work on WYITVMSHFNET yielded a protein stability index of 0.753 ± 0.009. Sequence FFGYLVDEGLWV has a protein stability index of 0.738 ± 0.0084. Work on KKQKKEKKKSHK yielded a protein stability index of 0.757 ± 0.068. PRVTPRFSKHAL gave a protein stability index of 0.724 ± 0.016. With ARFVAGLTKVDV the protein stability index was 0.65 ± 0.029. GMSSWNSISFPI gave a protein stability index of 0.751 ± 0.073. ARLAVTLLISPS was tested, and the protein stability index was 0.604 ± 0.016. For LPPCLEYLRVLR, the protein stability index was 0.658 ± 0.07. Sequence RGVDVWQGRTVP has a protein stability index of 0.6879 ± 0.0031. In the case of PSQRHQRPHREP, the protein stability index is reported as 0.657 ± 0.052. GARTPVPRHRVH showed a protein stability index of 0.6396 ± 0.0011. Work on RQESYYLYHTAR yielded a protein stability index of 0.717 ± 0.032. Work on FFGCVLRPCLRG yielded a protein stability index of 0.72 ± 0.0076. For PCDWEGCVAMNV, the protein stability index was 0.649 ± 0.055. LGWRLFNDVRRG gave a protein stability index of 0.707 ± 0.013. SPLLSSPSPFSL was tested, and the protein stability index was 0.751 ± 0.095. PPPTPPSRILPA showed a protein stability index of 0.699 ± 0.016. In the case of VVLGGGVGRGCW, the protein stability index is reported as 0.691 ± 0.13. In the case of HATPPPLPSPPL, the protein stability index is reported as 0.71976 ± 0.0003. In the case of DIEKRNKRGVCV, the protein stability index is reported as 0.714 ± 0.058. Sequence HDRIHWDLDLSE has a protein stability index of 0.617 ± 0.041. Sequence LRGGGGAGVFFG has a protein stability index of 0.6491 ± 0.0025. In the case of QPGGTHDLGGTG, the protein stability index is reported as 0.61 ± 0.012. CFPPVGPTSPTI showed a protein stability index of 0.745 ± 0.022. SLFASTFFVWPS showed a protein stability index of 0.725 ± 0.014. Work on MGKNDSITPELA yielded a protein stability index of 0.712 ± 0.029. With PPLPPPLPHRPL the protein stability index was 0.716 ± 0.078. AVVYIRVEVPGA was tested, and the protein stability index was 0.498 ± 0.017. With RPASPASSPFFP the protein stability index was 0.70509 ± 0.00065. CFGGGVGWFPLG was tested, and the protein stability index was 0.698 ± 0.0076. PLAPPSPPPAPP was tested, and the protein stability index was 0.6618 ± 0.00085. In the case of EVCPRGIAGGVV, the protein stability index is reported as 0.678 ± 0.013. For PPSRLLFPSPPA, the protein stability index was 0.683 ± 0.055. In the case of VVWSGWGCGGVR, the protein stability index is reported as 0.619 ± 0.015. With VCGVSWSRFPVL the protein stability index was 0.716 ± 0.0099. SIRPVRLSWVRL showed a protein stability index of 0.632 ± 0.0066. In the case of RAMLWGPCYRGI, the protein stability index is reported as 0.656 ± 0.021. PPPPPPPRGPPR was tested, and the protein stability index was 0.627 ± 0.014. Sequence SWICSTRSYQRE has a protein stability index of 0.702 ± 0.044. In the case of FRSPRLSPSFFF, the protein stability index is reported as 0.717 ± 0.027. Sequence KKLNKNKSKINR has a protein stability index of 0.683 ± 0.01. Sequence SAASLWSGFRYG has a protein stability index of 0.68 ± 0.0085. HSCYGHIRVSFC gave a protein stability index of 0.705 ± 0.0098. In the case of WWGAKLDGKVSE, the protein stability index is reported as 0.813 ± 0.0089. With SCGKGVGRWRLG the protein stability index was 0.6721 ± 0.0029. Sequence PHPTPGTPEPRD has a protein stability index of 0.744 ± 0.17. Work on SGGSKAGGVVRI yielded a protein stability index of 0.63 ± 0.039.
